Patent US20240132624A1 (Ablynx, published 2024)
Changes are numbered by the printed parent chain.

B1: T0263018B11 A33G (VHH, name in Kabat numbering)
VHH: EVQLVESGGGVVQPGGSLRLSCAASGFTFSSYGMYWVRQAPGKGLEWVSAISSGGGSTDYADSVKGRFTISRDNSKNTLYLQMNSLRPEDTALYYCAADTLYTSLTWYSYWGQGTLVTVSS
notes: FLAG3-His6 tagged
B2: T0263018B11 F29D (VHH, name in Kabat numbering)
VHH: B1 VHH with F29D, G33A
notes: FLAG3-His6 tagged
B3: T0263018B11 G26Y (VHH, name in Kabat numbering)
VHH: B1 VHH with G26Y, G33A
notes: FLAG3-His6 tagged
B4: T0263018B11 G26E (VHH, name in Kabat numbering)
VHH: B1 VHH with G26E, G33A
notes: FLAG3-His6 tagged
B5: T0263018B11 G26H (VHH, name in Kabat numbering)
VHH: B1 VHH with G26H, G33A
notes: FLAG3-His6 tagged
B6: T0263018B11 G54E (VHH, name in Kabat numbering)
VHH: B1 VHH with G33A, G55E
notes: FLAG3-His6 tagged
B7: T0263018B11 D58H (VHH, name in Kabat numbering)
VHH: B1 VHH with G33A, D59H
notes: FLAG3-His6 tagged
B8: T0263018B11 A94S (VHH, name in Kabat numbering)
VHH: B1 VHH with G33A, A98S
notes: FLAG3-His6 tagged
B9: T0263018B11 G26N (VHH, name in Kabat numbering)
VHH: B1 VHH with G26N, G33A
notes: FLAG3-His6 tagged
B10: T0263018B11 G26D (VHH, name in Kabat numbering)
VHH: B1 VHH with G26D, G33A
notes: FLAG3-His6 tagged
B11: T0263018B11 T57Y (VHH, name in Kabat numbering)
VHH: B1 VHH with G33A, T58Y
notes: FLAG3-His6 tagged
B12: T0263018B11 G54L (VHH, name in Kabat numbering)
VHH: B1 VHH with G33A, G55L
notes: FLAG3-His6 tagged
B13: T0263018B11 D58E (VHH, name in Kabat numbering)
VHH: B1 VHH with G33A, D59E
notes: FLAG3-His6 tagged
B14: T0263018B11 G26M (VHH, name in Kabat numbering)
VHH: B1 VHH with G26M, G33A
notes: FLAG3-His6 tagged
B15: T0263018B11 G26S (VHH, name in Kabat numbering)
VHH: B1 VHH with G26S, G33A
notes: FLAG3-His6 tagged
B16: T0263018B11 G26Q (VHH, name in Kabat numbering)
VHH: B1 VHH with G26Q, G33A
notes: FLAG3-His6 tagged
B17: T0263018B11 F29H (VHH, name in Kabat numbering)
VHH: B1 VHH with F29H, G33A
notes: FLAG3-His6 tagged
B18: T0263018B11 A33T (VHH, name in Kabat numbering)
VHH: B1 VHH with G33T
notes: FLAG3-His6 tagged
B19: T0263018B11 F29V (VHH, name in Kabat numbering)
VHH: B1 VHH with F29V, G33A
notes: FLAG3-His6 tagged
B20: T0263018B11 F27L (VHH, name in Kabat numbering)
VHH: B1 VHH with F27L, G33A
notes: FLAG3-His6 tagged
B21: T0263018B11 F27Y (VHH, name in Kabat numbering)
VHH: B1 VHH with F27Y, G33A
notes: FLAG3-His6 tagged
B22: T0263018B11 A33V (VHH, name in Kabat numbering)
VHH: B1 VHH with G33V
notes: FLAG3-His6 tagged
B23: T0263018B11 F29G (VHH, name in Kabat numbering)
VHH: B1 VHH with F29G, G33A
notes: FLAG3-His6 tagged
B24: T0263018B11 A33S (VHH, name in Kabat numbering)
VHH: B1 VHH with G33S
notes: FLAG3-His6 tagged
B25: T0263018B11 D58V (VHH, name in Kabat numbering)
VHH: B1 VHH with G33A, D59V
notes: FLAG3-His6 tagged
B26: T0263018B11 A93V (VHH, name in Kabat numbering)
VHH: B1 VHH with G33A, A97V
notes: FLAG3-His6 tagged
B27: T0263018B11 S52aD (VHH, name in Kabat numbering)
VHH: B1 VHH with G33A, S53D
notes: FLAG3-His6 tagged
B28: T0263018B11 F29S (VHH, name in Kabat numbering)
VHH: B1 VHH with F29S, G33A
notes: FLAG3-His6 tagged
B29: T0263018B11 D58Y (VHH, name in Kabat numbering)
VHH: B1 VHH with G33A, D59Y
notes: FLAG3-His6 tagged
B30: T0263018B11 T28A (VHH, name in Kabat numbering)
VHH: B1 VHH with T28A, G33A
notes: FLAG3-His6 tagged
B31: T0263018B11 A33Q (VHH, name in Kabat numbering)
VHH: B1 VHH with G33Q
notes: FLAG3-His6 tagged
B32: T0263018B11 S56M (VHH, name in Kabat numbering)
VHH: B1 VHH with G33A, S57M
notes: FLAG3-His6 tagged

Biological target: T1, human FcRn/b2M (human, UniProt P61769 21-119, biotinylated)
T1 construct: bought recombinant biotinylated protein (ACRO FCM-H82W4 or Immunitrack ITF01); also called hFcRn; hFcRn/hb2M
T1 sequence (chain, as listed by the source limits assumed, chain 1 of 2): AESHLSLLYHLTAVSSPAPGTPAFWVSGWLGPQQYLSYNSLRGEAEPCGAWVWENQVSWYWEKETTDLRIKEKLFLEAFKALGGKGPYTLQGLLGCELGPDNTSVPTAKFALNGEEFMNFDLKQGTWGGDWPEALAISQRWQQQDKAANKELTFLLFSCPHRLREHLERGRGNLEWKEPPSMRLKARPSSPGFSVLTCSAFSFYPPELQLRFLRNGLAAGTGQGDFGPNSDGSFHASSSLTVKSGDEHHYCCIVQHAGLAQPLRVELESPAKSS
T1 sequence (P61769 21-119 limits assumed, chain 2 of 2): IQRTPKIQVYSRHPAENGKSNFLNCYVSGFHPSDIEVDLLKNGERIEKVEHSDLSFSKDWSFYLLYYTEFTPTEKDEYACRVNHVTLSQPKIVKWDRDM
Assay: SPR pH 7.4;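 note: surface plasmon resonance kinetics, periplasmic extracts diluted 1:10 flowed over immobilized target at 25 °C, 120 s association then 600–3600 s dissociation, buffer with 150 mM NaCl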
Protocol: (§1) All kinetic measurements have been performed on ProteOn XPR36 (BioRad Laboratories, Inc.), MASS-2 (Sierra sensors, Gmbh) or SPR-32 (Bruker Corporation). […] The phytip purified periplasmic extracts were diluted 1:10 in running buffer (CPA+150 mM NaCl+0.005% Tw20 at pH 5.5, pH 6.0 or pH 7.4) and injected over the ligand surfaces (association: 120 s at 45 μL/min; dissociation: 600s-3600 s at 45 μL/min). Experiments were carried out at 25° C.

Binder | koff [s⁻¹]
B1 | 0.034
B2 | 0.14
B3 | 0.027
B4 | 0.042
B5 | 0.034
B6 | 0.046
B7 | 0.079
B8 | 0.046
B9 | 0.042
B10 | 0.063
B11 | 0.033
B12 | 0.041
B13 | 0.08
B14 | 0.033
B15 | 0.047
B16 | 0.034

Binder | koff [s⁻¹]
B17 | 0.14
B18 | 0.0038
B19 | 0.089
B20 | 0.05
B21 | 0.054
B22 | 0.0082
B23 | 0.15
B24 | 0.059
B25 | 0.14
B26 | 0.15
B27 | 0.044
B28 | 0.066
B29 | 0.089
B30 | 0.046
B31 | 0.065

Biological target: T2, cyno FcRn/b2M (cyno, UniProt Q8SPV9 24-297; Q8SPW0 21-119, biotinylated)
T2 construct: bought recombinant biotinylated protein (Immunitrack ITF05 or ACRO FCM-C82W5); also called cFcRn; cFcRn/cb2M
T2 sequence (Q8SPV9 24-297 limits assumed, chain 1 of 2): as the sequence (chain, as listed by the source limits assumed, chain 1 of 2) above, with N39D, E44Q, G99S, S189G, S190N, L217M, S269T counted along it
T2 sequence (Q8SPW0 21-119 limits assumed, chain 2 of 2): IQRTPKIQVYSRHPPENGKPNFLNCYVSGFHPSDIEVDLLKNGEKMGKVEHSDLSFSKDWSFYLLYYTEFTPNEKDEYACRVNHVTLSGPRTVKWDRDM
Assay: SPR pH 7.4;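 note: surface plasmon resonance kinetics, periplasmic extracts diluted 1:10 flowed over immobilized target at 25 °C, 120 s association then 600–3600 s dissociation, buffer with 150 mM NaCl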
Protocol: as §1

Binder | koff [s⁻¹]
B1 | 0.04
B2 | 0.15
B3 | 0.028
B4 | 0.05
B5 | 0.026
B6 | 0.062
B7 | 0.022
B8 | 0.047
B9 | 0.032
B10 | 0.058
B11 | 0.035
B12 | 0.06
B13 | 0.038
B14 | 0.025
B15 | 0.053
B16 | 0.026

Binder | koff [s⁻¹]
B17 | 0.13
B18 | 0.0058
B19 | 0.086
B20 | 0.048
B21 | 0.039
B22 | 0.013
B23 | 0.14
B24 | 0.065
B25 | 0.027
B26 | 0.14
B27 | 0.051
B28 | 0.059
B29 | 0.025
B30 | 0.033
B31 | 0.13

Biological target: T1, human FcRn/b2M
Assay: SPR off-rate; pH 7.4 vs pH 6.0;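 note: surface plasmon resonance with diluted periplasmic extracts flowed over ligand surfaces, 120 s association and 600–3600 s dissociation at 25 °C, running buffer containing 150 mM NaCl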
Protocol: as §1

Binder | kd ratio pH 7.4/6.0
B1 | 26
B2 | 39
B3 | 42
B4 | 44
B5 | 62
B6 | 29
B7 | 7
B8 | 35
B9 | 53
B10 | 53
B12 | 26
B13 | 33
B14 | 52
B15 | 52
B16 | 53
B17 | 36
B18 | 36
B19 | 42
B20 | 38
B21 | 45
B22 | 37
B23 | 45
B24 | 39
B25 | 9
B26 | 50
B28 | 41
B29 | 9
B31 | 36
B32 | 31

Biological target: T2, cyno FcRn/b2M
Assay: SPR off-rate; pH 7.4 vs pH 6.0;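 note: surface plasmon resonance with diluted periplasmic extracts flowed over ligand surfaces, 120 s association and 600–3600 s dissociation at 25 °C, running buffer containing 150 mM NaCl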
Protocol: as §1

Binder | kd ratio pH 7.4/6.0
B1 | 36
B2 | 54
B3 | 51
B4 | 62
B5 | 159
B6 | 39
B7 | 11
B8 | 43
B9 | 86
B10 | 61
B12 | 35
B13 | 32
B14 | 349
B15 | 67
B16 | 2010
B17 | 42
B18 | 54
B19 | 54
B20 | 48
B21 | 93
B22 | 53
B23 | 56
B24 | 50
B25 | 11
B26 | 67
B28 | 45
B29 | 12
B31 | 48

Biological target: T1, human FcRn/b2M
Assay: SPR pH 6.0;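 note: surface plasmon resonance kinetics at 25 °C, diluted periplasmic extracts injected over immobilized ligand surfaces, 120 s association then 600–3600 s dissociation, running buffer containing 150 mM NaCl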
Protocol: as §1

Binder | koff [s⁻¹]
B1 | 0.0013
B2 | 0.0036
B3 | 0.00065
B4 | 0.00095
B5 | 0.00055
B6 | 0.0016
B7 | 0.012
B8 | 0.0013
B9 | 0.00081
B10 | 0.0012
B12 | 0.0016
B13 | 0.0024
B14 | 0.00063
B15 | 0.00091
B16 | 0.00065
B17 | 0.0039
B18 | 0.00011
B19 | 0.0021
B20 | 0.0013
B21 | 0.0012
B22 | 0.00022
B23 | 0.0033
B24 | 0.0015
B25 | 0.015
B26 | 0.003
B28 | 0.0016
B29 | 0.01
B31 | 0.0018

Biological target: T2, cyno FcRn/b2M
Assay: SPR pH 6.0;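 note: surface plasmon resonance kinetics at 25 °C, diluted periplasmic extracts injected over immobilized ligand surfaces, 120 s association then 600–3600 s dissociation, running buffer containing 150 mM NaCl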
Protocol: as §1

Binder | koff [s⁻¹]
B1 | 0.0011
B2 | 0.0028
B3 | 0.00055
B4 | 0.00081
B5 | 0.00016
B6 | 0.0016
B7 | 0.002
B8 | 0.0011
B9 | 0.00037
B10 | 0.00095
B11 | 0.00084
B12 | 0.0017
B13 | 0.0012
B14 | 7.1e-05
B15 | 0.00079
B16 | 1.3e-05

Binder | koff [s⁻¹]
B17 | 0.0031
B18 | 0.00011
B19 | 0.0016
B20 | 0.001
B21 | 0.00042
B22 | 0.00024
B23 | 0.0025
B24 | 0.0013
B25 | 0.0025
B26 | 0.0021
B27 | 0.00089
B28 | 0.0013
B29 | 0.002
B30 | 0.00052
B31 | 0.0027
